{"source": "paper PMC4197845", "about": "(International journal of cancer. Journal international du …, 2011)", "binders": {"B1": {"name": "38G7 nanobody (VHH)", "VHH": "EVQLVESGGGLVQAGGSLRLSCAASGRTFSSYVMGWFRQATGKEREFVATIAWDSGSTYYADSVKGRFTISRDNAKNTVHLQMNSLKPEDTAVYYCAASYNVYYNNYYYPISRDEYDYWGQGTQVTVSS"}}, "key": {"[1]": {"target": "EGFR extra-cellular domain (EGFR-ECD; a.a. 1-614) fused to a human IgG1 Fc", "test": "ELISA"}, "[2]": {"target": "EGFR as used for SPR (BIAcore) (Homo sapiens, UniProt P00533)", "test": "SPR"}}}
{"binder": "B1", "values": [{"measurement": "IC50", "setting": "[1]", "result": 10, "unit": "nM"}, {"measurement": "koff", "setting": "[2]", "result": 0.0002, "unit": "s⁻¹"}]}
